The text below walks through data of patent publication US20260285954.

The Kd is the concentration at which binding is half-saturated.

The assay concerns the target Aβ oligomers (Aβ42) (human), P05067. Put plainly: SPR. The note with it: remark: other sources report otherwise.

Aβ oligomers (Aβ42) (human), P05067, sequence (P05067 672-713): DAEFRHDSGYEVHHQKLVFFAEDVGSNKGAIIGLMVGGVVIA

B1: 3F (protein)
chain: MAEVQLLESGGGLVQPGGSLRLSCAASGFTFSSYAMSWVRQAPGKGLEWVSGISNLGLTTGYADSVKGRFTISRDNSKNTLYLQMNSLRAEDTAVYYCAKTTSRFDYWGQGTLVTVSSGGGGSGGGGSGGGGSTDIQMTQSPSSLSASVGDRVTITCRASQSISSYLNWYQQKPGKAPKLLIYKASYLQSGVPSRFSGSGSGTDFTLTISSLQPEDFATYYCQNSAVRPVTFGQGTKVEIKR
As for B1, the Kd is 0.847 nM.
